Where a chain is given by its changes, count along the chain named. Names may count otherwise.
T1: human CCL17 (human, UniProt Q92583 24-94)
T1 construct: Biotinylated in the Fab ELISAs; also called huCCL17; Bt-huCCL17
T1 sequence: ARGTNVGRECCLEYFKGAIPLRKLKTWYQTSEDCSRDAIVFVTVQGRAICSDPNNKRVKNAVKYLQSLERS

T2: cyno CCL17 (Macaca fascicularis (cyno), UniProt Q8HYP9 24-94 (rhesus entry))
T2 construct: Biotinylated in the Fab ELISAs; also called cCCL17; cCCL-17
T2 sequence: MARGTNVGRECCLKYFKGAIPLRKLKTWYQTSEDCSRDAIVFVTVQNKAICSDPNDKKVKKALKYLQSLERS

B1: C17B239 (antibody, V domains shown)
VH: EVQLVQSGAEVKKPGESLKISCKGSGYSFTSYWIGWVRQMPGKGLEWMGIIDPSDSDTRYSPSFQGQVTISADKSISTAYLQWSSLKASDTAMYYCARVGPADVWDSFDYWGQGTLVTVSS
VL: DIVMTQSPDSLAVSLGERATINCKSSQSVLSSFTNTNTLAWYQQKPGQPPKLLIYHASTRESGVPDRFSGSGSGTDFTLTISSLQAEDVAVYYCQQYLIYPSTFGQGTKVEIK
notes: Full IgG1, kappa
B2: C17B241 (antibody, V domains shown)
VH: B1 VH
VL: B1 VL with S31N, T36N, T38A, H56E, Y97T, L98N, I99S, Y100I, S102L
notes: Full IgG1, kappa
B3: C17B260 (antibody, IgG1, V domains shown)
VH: B1 VH
VL: B1 VL with S31L, T34D, T36I, T38K, H56G, Y97F, L98Y, I99S, Y100V
notes: Expressed as IgG1; Light chain N50G (Kabat) variant of C17B234
B4: C17B263 (antibody, IgG1, V domains shown)
VH: B1 VH
VL: B1 VL with S31L, T34D, T36I, T38K, H56T, Y97F, L98Y, I99S, Y100V
notes: Expressed as IgG1; Light chain N50T (Kabat) variant of C17B234
B5: C17B294 (antibody, IgG1, V domains shown)
VH: B1 VH with S107T
VL: B1 VL with S31L, T34D, T36I, T38K, H56D, Y97F, L98Y, I99S, Y100V
notes: Expressed as IgG1; Heavy chain S100cT (Kabat) paired with the light chain of C17B258
B6: C17B295 (antibody, IgG1, V domains shown)
VH: B1 VH with D106E
VL: B1 VL with S31L, T34D, T36I, T38K, H56D, Y97F, L98Y, I99S, Y100V
notes: Expressed as IgG1; Heavy chain D100bE (Kabat) paired with the light chain of C17B258
B7: C17B234 (antibody, V domains shown)
VH: B1 VH
VL: B1 VL with S31L, T34D, T36I, T38K, H56N, Y97F, L98Y, I99S, Y100V
notes: Full IgG1, kappa
B8: C17B262 (antibody, IgG1, V domains shown)
VH: B1 VH
VL: B1 VL with S31L, T34D, T36I, T38K, H56S, Y97F, L98Y, I99S, Y100V
notes: Expressed as IgG1; Light chain N50S (Kabat) variant of C17B234
B9: C17B258 (antibody, IgG1, V domains shown)
VH: B1 VH
VL: B1 VL with S31L, T34D, T36I, T38K, H56D, Y97F, L98Y, I99S, Y100V
notes: Expressed as IgG1; Light chain N50D (Kabat) variant of C17B234
B10: C17B264 (antibody, IgG1, V domains shown)
VH: B1 VH
VL: B1 VL with S31L, T34D, T36I, T38K, H56I, Y97F, L98Y, I99S, Y100V
notes: Expressed as IgG1; Light chain N50I (Kabat) variant of C17B234
B11: C17B240 (antibody, V domains shown)
VH: B1 VH
VL: B1 VL with S31Y, F33H, T34V, T36Y, T38A, H56N, L98Y, I99T, Y100L, S102A
notes: Full IgG1, kappa
B12: C17B242 (antibody, V domains shown)
VH: B1 VH
VL: B1 VL with S31F, F33H, T34D, T36L, L98Y, I99A, Y100V, S102Q
notes: Full IgG1, kappa

Key:
[1] = target: T1, human CCL17; test: solution equilibrium affinity (MSD-SEA), TBST, 48 h at 4 °C
Experimental: (§1) Equal volumes of the anti-hCCL17 mAbs at 40 pM or 200 pM were added to each chemokine dilution to obtain mixtures containing the serial dilution of chemokines starting at a final concentration of […] and a constant concentration (20 pM or 100 pM) of anti-CCL17 antibody. The mixtures were prepared in duplicate and incubated at 4° C. for 48 hours to reach equilibrium. The free antibody was detected using a SECTOR Imager 6000 (Meso Scale Discovery) instrument. The resulting binding curves were fitted to obtain the dissociation equilibrium constant (KD) using the GraphPad Prism software (v 5.01) using a 1:1 binding model to perform nonlinear least-square regression analysis of the data.

[2] = target: T2, cyno CCL17; test: as above
Experimental: as §1

[3] = target: T1, human CCL17; test: cell-based or functional assay
[4] = target: T2, cyno CCL17; test: cell-based or functional assay
[5] = target: T1, human CCL17; test: not stated in the legend (affinities by MSD-SEA in Examples 3 and 4)
[6] = target: T1, human CCL17; test: MSD-SEA; affinity for human CCL17 against that for cyno CCL17
Experimental: as §1

[7] = target: T1, human CCL17; test: solution equilibrium affinity (MSD-SEA), IgG1
Experimental: as §1

[8] = target: T2, cyno CCL17; test: solution equilibrium affinity (MSD-SEA), IgG1
Experimental: as §1

[9] = target: T1, human CCL17; test: cell-based or functional assay; remark: listed apart in the source
[10] = target: T2, cyno CCL17; test: cell-based or functional assay; remark: listed apart in the source

| Binder | Kd [1] | Kd [2] | IC50 (nM), calcium flux assay in CCRF-CEM cells, 10 ng/ml human CCL17 [3] | IC50 (nM), calcium flux assay in CCRF-CEM cells, 5 ng/ml cyno CCL17 [4] | Kd [5] | Fold binding human/cyno CCL17 [6] | Kd [7] | Kd [8] | IC50 (nM), β-arrestin assay, Hek293 cells co-expressing CCR4, 20 nM CCL17 [9] | IC50 (nM), β-arrestin assay, Hek293 cells co-expressing CCR4, 20 nM CCL17 [10] |
| --- | --- | --- | --- | --- | --- | --- | --- | --- | --- | --- |
| B1 | 0.092 nM | 0.63 nM | 0.427 nM | 0.43 nM | ≤ 100 nM | 6.8 fold | – | – | – | – |
| B2 | 0.05 nM | 0.583 nM | 0.456 nM | 0.339 nM | ≤ 100 nM | 11.7 fold | – | – | – | – |
| B3 | – | – | – | – | – | 72.8 fold | 0.0005 nM | 0.0364 nM | – | – |
| B4 | – | – | – | – | – | 756 fold | 0.0001 nM | 0.0756 nM | – | – |
| B5 | – | – | – | – | ≤ 100 nM | 22 fold | 0.001 nM | 0.022 nM | – | – |
| B6 | – | – | – | – | – | 171 fold | 0.175 nM | 29.9 nM | – | – |
| B7 | 0.002 nM | 0.23 nM | 0.421 nM | 0.369 nM | ≤ 100 nM | 115 fold | – | – | 8.42 nM | 5.39 nM |
| B8 | – | – | – | – | – | 185 fold | 0.0003 nM | 0.0555 nM | – | – |
| B9 | – | – | – | – | – | 416 fold | 0.0001 nM | 0.0416 nM | – | – |
| B10 | – | – | – | – | – | 180 fold | 0.0004 nM | 0.0718 nM | – | – |
| B11 | 0.083 nM | 4.6 nM | 0.405 nM | 0.308 nM | ≤ 100 nM | 55.4 fold | – | – | – | – |
| B12 | 0.167 nM | 0.384 nM | 0.483 nM | 0.34 nM | – | 2.3 fold | – | – | – | – |
